According to US20150274841A1 (DYAX, published 2015):

Columns and labels:
[1] = biological target: T1, human plasma kallikrein (PKal) (human, UniProt P03952 20-638); assay: Ki,app; Fab inhibition of PKal cleavage of a substrate peptide, Morrison fit
T1 construct: Active PKal is cleaved at the marked R/I site into two disulfide-linked chains; also called human Pkal; active PKal
Protocol: (§1) Briefly, PKal and a Fab at various concentrations are incubated together for 1 hour at 30° C. A substrate peptide (cleavable by PKal) is then added to this PKal-Fab mixture. The rate of substrate peptide cleavage/proteolysis is then measured, and plotted against the concentrations of the Fab. This plot is then fit to the Morrison equation, which calculates the K_{i,app} value. The results thus obtained are shown in FIGS. 5A-5D and Table 3 below: […]

[2] = biological target: T1, human plasma kallikrein (PKal); assay: enzyme inhibition assay: rate (F/s) of substrate peptide cleavage by PKal against [Fab] (nM), fitted to the Morrison equation; apparent Ki (Ki,app); Table 3 prints it rounded, 1405.6 nM
[3] = biological target: T1, human plasma kallikrein (PKal); assay: enzyme inhibition assay: rate (F/s) of substrate peptide cleavage by PKal against [Fab] (nM), fitted to the Morrison equation; apparent Ki (Ki,app); Table 3 prints it rounded, 14.7 nM
[4] = biological target: T1, human plasma kallikrein (PKal); assay: enzyme inhibition assay: rate (F/s) of substrate peptide cleavage by PKal against [2930] (pM), fitted to the Morrison equation; apparent Ki (Ki,app); no unit stands beside the value, pM is the unit of the concentration axis; Table 3 prints 0.06 nM
Protocol: as §1

[5] = biological target: T1, human plasma kallikrein (PKal); assay: enzyme inhibition assay: rate (F/s) of substrate peptide cleavage by PKal against [Fab] (nM), fitted to the Morrison equation; apparent Ki (Ki,app); Table 3 prints 0.33 nM
Protocol: as §1

[6] = biological target: T1, human plasma kallikrein (PKal); assay: enzyme inhibition assay: rate (F/s) of substrate peptide cleavage by PKal against [Fab] (nM), fitted to the Morrison equation; apparent Ki (Ki,app); Table 3 prints 1.1 nM
Protocol: as §1

[7] = biological target: T1, human plasma kallikrein (PKal); assay: enzyme inhibition assay: rate (F/s) of substrate peptide cleavage by PKal against [Fab] (nM), fitted to the Morrison equation; apparent Ki (Ki,app); Table 3 prints it rounded, 2.2 nM
Protocol: as §1

T1 sequence (P03952 20-638 limits assumed): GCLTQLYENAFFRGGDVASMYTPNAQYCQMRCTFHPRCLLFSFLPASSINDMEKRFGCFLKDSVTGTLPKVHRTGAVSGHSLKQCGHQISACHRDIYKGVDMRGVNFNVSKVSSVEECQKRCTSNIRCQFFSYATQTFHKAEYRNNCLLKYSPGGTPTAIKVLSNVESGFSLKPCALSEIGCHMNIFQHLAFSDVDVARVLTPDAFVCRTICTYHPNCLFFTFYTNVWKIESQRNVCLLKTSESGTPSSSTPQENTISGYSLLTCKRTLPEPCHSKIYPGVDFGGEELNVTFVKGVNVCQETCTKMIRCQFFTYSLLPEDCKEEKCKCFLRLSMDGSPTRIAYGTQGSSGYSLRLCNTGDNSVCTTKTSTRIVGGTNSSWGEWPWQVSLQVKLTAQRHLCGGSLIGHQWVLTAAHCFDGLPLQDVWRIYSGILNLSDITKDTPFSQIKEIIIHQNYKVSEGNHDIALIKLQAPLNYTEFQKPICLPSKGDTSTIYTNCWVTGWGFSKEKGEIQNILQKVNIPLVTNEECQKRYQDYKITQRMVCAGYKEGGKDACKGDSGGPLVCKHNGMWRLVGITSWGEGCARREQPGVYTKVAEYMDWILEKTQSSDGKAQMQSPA

Row | Binder | Ki [1] | also measured
1 | X133-G05 (Fab, V domains shown) VH: EVQLLESGGGLVQPGGSLRLSCAASGFTFSHYIMMWVRQAPGKGLEWVSGIYSSGGITVYADSVKGRFTISRDNSKNTLYLQMNSLRAEDTAVYYCAYRRTGSPRRDAFDIWGQGTMVTVSS VL: DIQMTQSPSTLSASVGDRVTITCRASQSISSWLAWYQQKPGKAPNLLIYKASTLESGVPSRFSGSGSGTEFTLTISSLQPDDFATYYCQQYNTYWTFGQGTKVEIK | 1410 nM | Ki [2]: 1410 nM
2 | M0202-D09 (Fab, V domains shown) VH: EVQLLESGGGLVQPGGSLRLSCAASGFTFSHYIMMWVRQAPGKGLEWVSGIYSSGGITVYADSVKGRFTISRDNSKNTLYLQMNSLRAEDTAVYYCAYRRIGVPRRDSFDIWGQGTMVTVSS VL: DIQMTQSPSTLSASVGDRVTITCRASQSISSWLAWYQQKPGKAPNLLIYKASTLESGVPSRFSGSGSGTEFTLTISSLQPDDFATYYCQQYNTYWTFGQGTKVEIK | 0.2 nM | –
3 | X133-F10 (Fab, V domains shown) VH: EVQLLESGGGLVQPGGSLRLSCAASGFTFSHYIMMWVRQAPGKGLEWVSGIYSSGGITVYADSVKGRFTISRDNSKNTLYLQMNSLRAEDTAVYYCAYRRTGLPRRDAFDIWGQGTMVTVSS VL: DIQMTQSPSTLSASVGDRVTITCRASQSISSWLAWYQQKPGKAPNLLIYKASTLESGVPSRFSGSGSGTEFTLTISSLQPDDFATYYCQQYNTYWTFGQGTKVEIK | 14.7 nM | Ki [3]: 14.7 nM
4 | M0199-All (Fab, V domains shown) VH: EVQLLESGGGLVQPGGSLRLSCAASGFTFSHYIMMWVRQAPGKGLEWVSGIYSSGGITVYADSVKGRFTISRDNSKNTLYLQMNSLRAEDTAVYYCAYRRRGIPRRDAFDIWGQGTMVTVSS VL: DIQMTQSPSTLSASVGDRVTITCRASQSISSWLAWYQQKPGKAPNLLIYKASTLESGVPSRFSGSGSGTEFTLTISSLQPDDFATYYCQQYNTYWTFGQGTKVEIK | 2 nM | –
5 | M0201-F11 (Fab, V domains shown) VH: EVQLLESGGGLVQPGGSLRLSCAASGFTFSHYIMMWVRQAPGKGLEWVSGIYSSGGITVYADSVKGRFTISRDNSKNTLYLQMNSLRAEDTAVYYCAYRRSGIPRRDAFDIWGQGTMVTVSS VL: DIQMTQSPSTLSASVGDRVTITCRASQSISSWLAWYQQKPGKAPNLLIYKASTLESGVPSRFSGSGSGTEFTLTISSLQPDDFATYYCQQYNTYWTFGQGTKVEIK | 3 nM | –
6 | M0200-B01 (Fab, V domains shown) VH: EVQLLESGGGLVQPGGSLRLSCAASGFTFSHYIMMWVRQAPGKGLEWVSGIYSSGGITVYADSVKGRFTISRDNSKNTLYLQMNSLRAEDTAVYYCAYRRTGIPRRDAFDSWGQGTMVTVSS VL: DIQMTQSPSTLSASVGDRVTITCRASQSISSWLAWYQQKPGKAPNLLIYKASTLESGVPSRFSGSGSGTEFTLTISSLQPDDFATYYCQQYNTYWTFGQGTKVEIK | 3.6 nM | –
7 | M0202-A08 (Fab, V domains shown) VH: EVQLLESGGGLVQPGGSLRLSCAASGFTFSHYIMMWVRQAPGKGLEWVSGIYSSGGITVYADSVKGRFTISRDNSKNTLYLQMNSLRAEDTAVYYCAYRRTGIPRWDAFDIWGQGTMVTVSS VL: DIQMTQSPSTLSASVGDRVTITCRASQSISSWLAWYQQKPGKAPNLLIYKASTLESGVPSRFSGSGSGTEFTLTISSLQPDDFATYYCQQYNTYWTFGQGTKVEIK | 2.8 nM | –
8 | M0199-B01 (Fab, V domains shown) VH: EVQLLESGGGLVQPGGSLRLSCAASGFTFSHYIMMWVRQAPGKGLEWVSGIYSSGGITVYADSVKGRFTISRDNSKNTLYLQMNSLRAEDTAVYYCAYRRTGIPRRDAFDNWGQGTMVTVSS VL: DIQMTQSPSTLSASVGDRVTITCRASQSISSWLAWYQQKPGKAPNLLIYKASTLESGVPSRFSGSGSGTEFTLTISSLQPDDFATYYCQQYNTYWTFGQGTKVEIK | 1.6 nM | –
9 | M0202-009 (Fab, V domains shown) VH: EVQLLESGGGLVQPGGSLRLSCAASGFTFSHYIMMWVRQAPGKGLEWVSGIYSSGGITVYADSVKGRFTISRDNSKNTLYLQMNSLRAEDTAVYYCAYRRIGVPRRDDFDIWGQGTMVTVSS VL: DIQMTQSPSTLSASVGDRVTITCRASQSISSWLAWYQQKPGKAPNLLIYKASTLESGVPSRFSGSGSGTEFTLTISSLQPDDFATYYCQQYNTYWTFGQGTKVEIK | 0.06 nM | –
10 | M0202-E03 (Fab, V domains shown) VH: EVQLLESGGGLVQPGGSLRLSCAASGFTFSHYIMMWVRQAPGKGLEWVSGIYSSGGITVYADSVKGRFTISRDNSKNTLYLQMNSLRAEDTAVYYCAYRRTGIPRRDAFEIWGQGTMVTVSS VL: DIQMTQSPSTLSASVGDRVTITCRASQSISSWLAWYQQKPGKAPNLLIYKASTLESGVPSRFSGSGSGTEFTLTISSLQPDDFATYYCQQYNTYWTFGQGTKVEIK | 2 nM | –
11 | M0200-D03 (Fab, V domains shown) VH: EVQLLESGGGLVQPGGSLRLSCAASGFTFSHYIMMWVRQAPGKGLEWVSGIYSSGGITVYADSVKGRFTISRDNSKNTLYLQMNSLRAEDTAVYYCAYRRIGVPRRDSFDMWGQGTMVTVSS VL: DIQMTQSPSTLSASVGDRVTITCRASQSISSWLAWYQQKPGKAPNLLIYKASTLESGVPSRFSGSGSGTEFTLTISSLQPDDFATYYCQQYNTYWTFGQGTKVEIK | 0.1 nM | –
12 | X135-A01 (Fab, V domains shown) VH: EVQLLESGGGLVQPGGSLRLSCAASGFTFSHYIMMWVRQAPGKGLEWVSGIYSSGGITVYADSVKGRFTISRDNSKNTLYLQMNSLRAEDTAVYYCAYRRTGAPRRDAFDIWGQGTMVTVSS VL: DIQMTQSPSTLSASVGDRVTITCRASQSISSWLAWYQQKPGKAPNLLIYKASTLESGVPSRFSGSGSGTEFTLTISSLQPDDFATYYCQQYNTYWTFGQGTKVEIK | 248 nM | –
13 | M0199-A08 (Fab, V domains shown, also called M199-A08) VH: EVQLLESGGGLVQPGGSLRLSCAASGFTFSHYIMMWVRQAPGKGLEWVSGIYSSGGITVYADSVKGRFTISRDNSKNTLYLQMNSLRAEDTAVYYCAYRRIGVPRRDEFDIWGQGTMVTVSS VL: DIQMTQSPSTLSASVGDRVTITCRASQSISSWLAWYQQKPGKAPNLLIYKASTLESGVPSRFSGSGSGTEFTLTISSLQPDDFATYYCQQYNTYWTFGQGTKVEIK | 0.06 nM | Ki [4]: 0.099 nM
14 | X133-D06 (Fab, V domains shown, HC CDR3 variant of M0162-A04, tested as Fab) VH: EVQLLESGGGLVQPGGSLRLSCAASGFTFSHYIMMWVRQAPGKGLEWVSGIYSSGGITVYADSVKGRFTISRDNSKNTLYLQMNSLRAEDTAVYYCAYRRIGIPRRDEFDIWGQGTMVTVSS VL: DIQMTQSPSTLSASVGDRVTITCRASQSISSWLAWYQQKPGKAPNLLIYKASTLESGVPSRFSGSGSGTEFTLTISSLQPDDFATYYCQQYNTYWTFGQGTKVEIK | 0.33 nM | Ki [5]: 0.301 nM
15 | X135-A03 (Fab, V domains shown, HC CDR3 variant of M0162-A04, tested as Fab) VH: EVQLLESGGGLVQPGGSLRLSCAASGFTFSHYIMMWVRQAPGKGLEWVSGIYSSGGITVYADSVKGRFTISRDNSKNTLYLQMNSLRAEDTAVYYCAYRRTGIPRRDEFDIWGQGTMVTVSS VL: DIQMTQSPSTLSASVGDRVTITCRASQSISSWLAWYQQKPGKAPNLLIYKASTLESGVPSRFSGSGSGTEFTLTISSLQPDDFATYYCQQYNTYWTFGQGTKVEIK | 1.1 nM | Ki [6]: 1.25 nM
16 | X133-B02 (Fab, V domains shown, HC CDR3 variant of M0162-A04, tested as Fab) VH: EVQLLESGGGLVQPGGSLRLSCAASGFTFSHYIMMWVRQAPGKGLEWVSGIYSSGGITVYADSVKGRFTISRDNSKNTLYLQMNSLRAEDTAVYYCAYRRIGIPRRDAFDIWGQGTMVTVSS VL: DIQMTQSPSTLSASVGDRVTITCRASQSISSWLAWYQQKPGKAPNLLIYKASTLESGVPSRFSGSGSGTEFTLTISSLQPDDFATYYCQQYNTYWTFGQGTKVEIK | 2.2 nM | Ki [7]: 2.22 nM
